Assays:
Assay in all cases: IEDB peptide-MHC binding, purified MHC/competitive/radioactivity; filed as Kd, often an IC50 or EC50 that approximates it; ≥ and ≤ were set here for values at or beyond the usual limits of such assays
HLA-A*02:02 = molecular target: HLA-A*02:02
HLA-A*02:03 = molecular target: HLA-A*02:03
HLA-A*02:06 = molecular target: HLA-A*02:06
HLA-A*31:01 = molecular target: HLA-A*31:01
HLA-A*11:01 = molecular target: HLA-A*11:01
HLA-A*68:01 = molecular target: HLA-A*68:01
HLA-A*33:01 = molecular target: HLA-A*33:01
HLA-A*03:01 = molecular target: HLA-A*03:01
[1] = source organism: SARS coronavirus Tor2
[2] = source organism: Vaccinia virus WR
[3] = source organism: Mammarenavirus guanaritoense
[4] = source organism: Mammarenavirus whitewaterense
[5] = source organism: Mammarenavirus brazilense
[6] = source organism: Dengue virus 3 Martinique/1243/1999
[7] = source organism: Lassa virus Josiah
[8] = source organism: Mammarenavirus lassaense

With AIYVFCISL the Kd (HLA-A*02:02; [1]) was 143 nM, the Kd (HLA-A*02:03; [1]) was 201 nM and the Kd (HLA-A*02:06; [1]) was 47.7 nM.

For ALVCYIVMPV, the Kd (HLA-A*02:02; [1]) was 1.2 nM, the Kd (HLA-A*02:03; [1]) was 4.4 nM and the Kd (HLA-A*02:06; [1]) was 2.92 nM.

ALVSDCAST showed a Kd (HLA-A*02:02; [2]) of 701 nM, a Kd (HLA-A*02:03; [2]) of 31.1 nM and a Kd (HLA-A*02:06; [2]) of 311 nM.

CVDHPFIYVI was tested, and the Kd (HLA-A*02:02; [2]) was 964 nM, the Kd (HLA-A*02:03; [2]) was 10800 nM and the Kd (HLA-A*02:06; [2]) was 1610 nM.

DITNILGGV was tested, and the Kd (HLA-A*02:02; [2]) was 9880 nM, the Kd (HLA-A*02:03; [2]) was 1640 nM and the Kd (HLA-A*02:06; [2]) was 7430 nM.

Work on DLNIFMTLV yielded a Kd (HLA-A*02:02; [2]) of 1910 nM, a Kd (HLA-A*02:03; [2]) of 556 nM and a Kd (HLA-A*02:06; [2]) of 2190 nM.

Sequence DMICCDSRIV has a Kd (HLA-A*02:02; [2]) of 11300 nM, a Kd (HLA-A*02:03; [2]) of 6080 nM and a Kd (HLA-A*02:06; [2]) of 18900 nM.

In the case of DQLVFNSISA, the Kd (HLA-A*02:02; [2]) is reported as 206 nM, the Kd (HLA-A*02:03; [2]) is reported as 289 nM and the Kd (HLA-A*02:06; [2]) is reported as 759 nM.

In the case of DVNSVQFSIL, the Kd (HLA-A*02:02; [2]) is reported as 2270 nM, the Kd (HLA-A*02:03; [2]) is reported as 1660 nM and the Kd (HLA-A*02:06; [2]) is reported as 3400 nM.

EIVKNIREGT was tested, and the Kd (HLA-A*02:02; [2]) was at least 28500 nM, the Kd (HLA-A*02:03; [2]) was 8530 nM and the Kd (HLA-A*02:06; [2]) was at least 60700 nM.

Work on ELAYYNSCML yielded a Kd (HLA-A*02:02; [2]) of 1870 nM, a Kd (HLA-A*02:03; [2]) of 151 nM and a Kd (HLA-A*02:06; [2]) of 3570 nM.

ELVKHGLRAL was tested, and the Kd (HLA-A*02:06; source organism: Homo sapiens) was at least 43400 nM.

EVLMSPCRM showed a Kd (HLA-A*02:02; [2]) of 6830 nM, a Kd (HLA-A*02:03; [2]) of 651 nM and a Kd (HLA-A*02:06; [2]) of 11800 nM.

FIASAPQQL gave a Kd (HLA-A*02:02; [2]) of 1.97 nM, a Kd (HLA-A*02:03; [2]) of 4.39 nM and a Kd (HLA-A*02:06; [2]) of 89.4 nM.

In the case of FLAFLLFLVL, the Kd (HLA-A*02:02; [1]) is reported as 13.2 nM, the Kd (HLA-A*02:03; [1]) is reported as 245 nM and the Kd (HLA-A*02:06; [1]) is reported as 2000 nM.

Sequence FLTNKLLLFA has a Kd (HLA-A*02:02; [1]) of 0.417 nM, a Kd (HLA-A*02:03; [1]) of 1.41 nM and a Kd (HLA-A*02:06; [1]) of 7.47 nM.

FMECNLNEL was tested, and the Kd (HLA-A*02:03; source organism: Homo sapiens) was 1.1 nM.

With FMNDLQVSR the Kd (HLA-A*02:02; [3]) was 249 nM, the Kd (HLA-A*02:03; [3]) was 914 nM and the Kd (HLA-A*02:06; [3]) was at least 33600 nM.

For FSAVISGSV, the Kd (HLA-A*02:02; [4]) was 48.2 nM, the Kd (HLA-A*02:03; [4]) was 14100 nM and the Kd (HLA-A*02:06; [4]) was 161 nM.

FVNFVKDMI was tested, and the Kd (HLA-A*02:02; [2]) was 55.2 nM, the Kd (HLA-A*02:03; [2]) was 124 nM and the Kd (HLA-A*02:06; [2]) was 229 nM.

Work on GIIITVGML yielded a Kd (HLA-A*02:02; [2]) of 8670 nM, a Kd (HLA-A*02:03; [2]) of 349 nM and a Kd (HLA-A*02:06; [2]) of 18400 nM.

With GLKSKTHAVL the Kd (HLA-A*02:03; source organism: Homo sapiens) was 1.05 nM and the Kd (HLA-A*02:06; source organism: Homo sapiens) was at least 69800 nM.

In the case of HLENDKIEDL, the Kd (HLA-A*02:02; [2]) is reported as 526 nM, the Kd (HLA-A*02:03; [2]) is reported as 414 nM and the Kd (HLA-A*02:06; [2]) is reported as 10600 nM.

With HQRRLVKLL the Kd (HLA-A*02:02; [2]) was 15900 nM, the Kd (HLA-A*02:03; [2]) was 1680 nM and the Kd (HLA-A*02:06; [2]) was at least 21300 nM.

Work on HSLPRCWLV yielded a Kd (HLA-A*02:02; [5]) of 654 nM, a Kd (HLA-A*02:03; [5]) of 146 nM and a Kd (HLA-A*02:06; [5]) of 322 nM.

Sequence IAGGVCYYLL has a Kd (HLA-A*02:02; [2]) of 4580 nM, a Kd (HLA-A*02:03; [2]) of 14600 nM and a Kd (HLA-A*02:06; [2]) of 656 nM.

With IASGQRCHFI the Kd (HLA-A*02:02; [2]) was 526 nM, the Kd (HLA-A*02:03; [2]) was 8320 nM and the Kd (HLA-A*02:06; [2]) was 256 nM.

Sequence IVLEFFMMVL has a Kd (HLA-A*02:06; [6]) of 107 nM.

With KVVGLYGNGV the Kd (HLA-A*02:06; source organism: Dengue virus 2 Jamaica/1409/1983) was 11.8 nM.

Sequence NLKYTVIITV has a Kd (HLA-A*02:03; [6]) of 9.29 nM.

In the case of NTKSDIDVIK, the Kd (HLA-A*31:01; [2]) is reported as 4030 nM, the Kd (HLA-A*11:01; [2]) is reported as 68.4 nM and the Kd (HLA-A*68:01; [2]) is reported as 0.547 nM. For the same sequence, the Kd (HLA-A*33:01; [2]) was 970 nM and the Kd (HLA-A*03:01; [2]) was 8260 nM.

For NYSKYWYLNH, the Kd (HLA-A*31:01; [7]) was 1480 nM, the Kd (HLA-A*11:01; [7]) was at least 21800 nM and the Kd (HLA-A*68:01; [7]) was at least 70100 nM. It also gave a Kd (HLA-A*33:01; [7]) of 863 nM and a Kd (HLA-A*03:01; [7]) of at least 70000 nM.

Work on NYTRFWYINH yielded a Kd (HLA-A*31:01; [3]) of 1340 nM, a Kd (HLA-A*11:01; [3]) of 12300 nM and a Kd (HLA-A*68:01; [3]) of 4140 nM. For the same sequence, the Kd (HLA-A*33:01; [3]) was 48.8 nM and the Kd (HLA-A*03:01; [3]) was 9020 nM.

In the case of PCPLPHRLDR, the Kd (HLA-A*31:01; [3]) is reported as 2940 nM, the Kd (HLA-A*11:01; [3]) is reported as at least 69700 nM and the Kd (HLA-A*68:01; [3]) is reported as at least 31100 nM. It also gave a Kd (HLA-A*33:01; [3]) of at least 21800 nM and a Kd (HLA-A*03:01; [3]) of at least 70000 nM.

PIGMQFDKVY showed a Kd (HLA-A*31:01; [2]) of at least 70000 nM, a Kd (HLA-A*11:01; [2]) of 1230 nM and a Kd (HLA-A*68:01; [2]) of 13000 nM. The Kd (HLA-A*33:01; [2]) was at least 70000 nM and the Kd (HLA-A*03:01; [2]) was at least 70100 nM.

QCKDLCHMH was tested, and the Kd (HLA-A*31:01; [8]) was 526 nM, the Kd (HLA-A*11:01; [8]) was at least 77900 nM and the Kd (HLA-A*68:01; [8]) was 1520 nM. For the same sequence, the Kd (HLA-A*33:01; [8]) was 12300 nM and the Kd (HLA-A*03:01; [8]) was at least 71900 nM.

In the case of QMAGVEVRY, the Kd (HLA-A*31:01; [2]) is reported as at least 31200 nM, the Kd (HLA-A*11:01; [2]) is reported as 2270 nM and the Kd (HLA-A*68:01; [2]) is reported as 7430 nM. For the same sequence, the Kd (HLA-A*33:01; [2]) was at least 20200 nM and the Kd (HLA-A*03:01; [2]) was 49.6 nM.

In the case of RIDGAHLTK, the Kd (HLA-A*31:01; [1]) is reported as 1820 nM, the Kd (HLA-A*11:01; [1]) is reported as 11.9 nM and the Kd (HLA-A*68:01; [1]) is reported as at least 25700 nM. For the same sequence, the Kd (HLA-A*33:01; [1]) was at least 77700 nM and the Kd (HLA-A*03:01; [1]) was 26.7 nM.

RLASMAICSA was tested, and the Kd (HLA-A*02:03; source organism: Dengue virus 4 Philippines/H241/1956) was 24.5 nM.

Work on RQFHQKLLK yielded a Kd (HLA-A*31:01; [1]) of 8.5 nM, a Kd (HLA-A*11:01; [1]) of 13.3 nM and a Kd (HLA-A*68:01; [1]) of at least 39500 nM. The Kd (HLA-A*33:01; [1]) was at least 77700 nM and the Kd (HLA-A*03:01; [1]) was 12.6 nM.

Work on RSSPPIPMSR yielded a Kd (HLA-A*31:01; [2]) of 1.12 nM, a Kd (HLA-A*11:01; [2]) of 1.49 nM and a Kd (HLA-A*68:01; [2]) of 245 nM. For the same sequence, the Kd (HLA-A*33:01; [2]) was 1600 nM and the Kd (HLA-A*03:01; [2]) was 8.73 nM.

SAGAGVLDK showed a Kd (HLA-A*31:01; [2]) of at least 26600 nM, a Kd (HLA-A*11:01; [2]) of 316 nM and a Kd (HLA-A*68:01; [2]) of 3350 nM. For the same sequence, the Kd (HLA-A*33:01; [2]) was at least 77700 nM and the Kd (HLA-A*03:01; [2]) was 243 nM.
